Laboratory results: patent publication US20100183625A1, “Treatment of Mucositis with Kallikrein Inhibitors” (Dyax Corp., priority 2009, published 2010)
Where two headings read alike, the source gives them in different places.

Legend:
[1] = target: T1, biotinylated plasma kallikrein (human pKal) (Homo sapiens, UniProt P03952); assay: Human pKal ELISA (T/B); type: binding; details: ELISA signal of target (biotinylated plasma kallikrein) divided by signal of background (streptavidin); Table 6
T1 construct: two disulfide linked polypeptides; a heavy chain of approximately 52 kDa and a catalytic domain of approximately 34 kDa; host or cells: human plasma

[2] = target: T2, human plasma kallikrein (human pKal) (Homo sapiens, UniProt P03952); assay: Ki,app against human pKal by steady state enzyme kinetics (in vitro protease cleavage assay, Pro-Phe-Arg-aminomethylcoumarin substrate); type: biochemical
T2 construct: two disulfide linked polypeptides; a heavy chain of approximately 52 kDa and a catalytic domain of approximately 34 kDa; host or cells: human plasma
From the text: The inhibition constant (Ki) provides a measure of inhibitor potency; it is the concentration of inhibitor required to reduce enzyme activity by half and is not dependent on enzyme or substrate concentrations. The apparent Ki (Ki,app) is obtained at different substrate concentrations by measuring the inhibitory effect of different concentrations of inhibitor (e.g., inhibitory binding protein) on the extent of the reaction (e.g., enzyme activity); fitting the change in pseudo-first order rate constant as a function of inhibitor concentration to the Morrison equation (Equation 1) yields an estimate of the apparent Ki value. The Ki is obtained from the y-intercept extracted from a linear regression analysis of a plot of Ki,app versus substrate concentration.
Where v=measured velocity; v0=velocity in the absence of inhibitor; Ki,app=apparent inhibition constant; I=total inhibitor concentration; and E=total enzyme concentration.
The sequence of human plasma kallikrein that was used in selections and subsequent screening of binding proteins is shown below (accession number NP_000883.2). The human plasma kallikrein (86 kDa) that was used was purified from human plasma and activated with factor XIIa by a commercial vendor. Factor XIIa activates prekallikrein by cleaving the polypeptide sequence at a single site (between Arg371-Ile372, cleavage site marked by “/” in the sequence below) to generate active plasma kallikrein, which then consists of two disulfide linked polypeptides; a heavy chain of approximately 52 kDa and a catalytic domain of approximately 34 kDa [Colman and Schmaier, (1997) “Contact System: A Vascular Biology Modulator With Anticoagulant, Profibrinolytic, Antiadhesive, and Proinflammatory Attributes” Blood, 90, 3819-3843]
These antibodies were produced as Fab fragments in small scale (˜20 μg) and tested for inhibition against human pKal in an in vitro protease cleavage assay using Pro-Phe-Arg-aminomethylcoumarin as the synthetic peptide substrate. […] Five antibodies were then expressed in 293T cells and purified by protein A sepharose chromatography. The antibodies were analyzed by SDS-PAGE to determine which of the inhibitory mutants are not cleaved by the host cell protease(s) (data not shown).

pKal = target: T3, pKal (Homo sapiens, UniProt P03952); assay: Inhibition screening with 10 nM antibody (as Fab fragments); type: biochemical
T3 construct: two disulfide linked polypeptides; a heavy chain of approximately 52 kDa and a catalytic domain of approximately 34 kDa; host or cells: human plasma
From the text: The 82 antibodies that were discovered based on improvements in M162-A04 due to modifications in either the CDR1/2 and CDR3 region are shown in Table 12.
The 62 antibodies that were discovered based on improvements in X63-G06 due to modifications in either the CDR1/2 and CDR3 region are shown in Table 13.

mouse pKal = target: T4, mouse pKal (Mus musculus, UniProt P26262); assay: Ki,app against mouse pKal; type: biochemical; details: Table 15
T4 construct: active plasma kallikrein (pkal) has the single polypeptide chain cleaved at a single position
Protocol: Fourth, antibodies were tested for their ability to inhibit pKal from other species, besides human, where the amino acid sequence of pKal has been determined in order to identify amino acids that may account for the differences in inhibition.
Antibodies that inhibit the activity of pKal either bind near the active site and preclude substrate interactions (competitive inhibitors) or that bind away from the active site and induce allosteric changes in the structure of the active site (noncompetitive inhibitors).

[3] = Table 6, read-out: Human pKal (Ki, app nM)
[4] = Table 13, antibodies based on X63-G06
[5] = human pKal, Table 13, antibodies based on X63-G06, read-out: human pKal Ki, app

T2 sequence (P03952 391-638 limits assumed): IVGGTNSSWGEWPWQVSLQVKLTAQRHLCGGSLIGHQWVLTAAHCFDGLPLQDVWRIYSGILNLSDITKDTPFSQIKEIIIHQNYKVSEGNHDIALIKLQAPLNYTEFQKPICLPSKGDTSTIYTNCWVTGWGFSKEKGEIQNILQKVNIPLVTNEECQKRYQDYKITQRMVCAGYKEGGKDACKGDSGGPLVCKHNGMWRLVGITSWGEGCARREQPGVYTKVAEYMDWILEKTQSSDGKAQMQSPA
T2 sequence (P03952 20-390 partner limits assumed): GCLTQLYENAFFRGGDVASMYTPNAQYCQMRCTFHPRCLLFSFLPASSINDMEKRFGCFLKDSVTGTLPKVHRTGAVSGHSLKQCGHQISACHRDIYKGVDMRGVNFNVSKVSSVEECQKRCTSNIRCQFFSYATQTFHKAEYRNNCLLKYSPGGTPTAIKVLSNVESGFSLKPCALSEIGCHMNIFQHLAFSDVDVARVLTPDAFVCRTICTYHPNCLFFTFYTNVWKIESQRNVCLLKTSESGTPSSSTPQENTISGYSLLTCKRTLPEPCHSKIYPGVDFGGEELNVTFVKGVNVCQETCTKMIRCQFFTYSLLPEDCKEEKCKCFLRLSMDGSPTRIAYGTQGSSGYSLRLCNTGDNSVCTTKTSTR
T3 sequence (P03952 391-638 limits assumed): as the sequence (P03952 391-638 limits assumed) above
T3 sequence (P03952 20-390 partner limits assumed): as the sequence (P03952 20-390 partner limits assumed) above
T1 sequence (P03952 391-638 limits assumed): as the sequence (P03952 391-638 limits assumed) above
T1 sequence (P03952 20-390 partner limits assumed): as the sequence (P03952 20-390 partner limits assumed) above
T4 sequence (P26262 391-638 limits assumed): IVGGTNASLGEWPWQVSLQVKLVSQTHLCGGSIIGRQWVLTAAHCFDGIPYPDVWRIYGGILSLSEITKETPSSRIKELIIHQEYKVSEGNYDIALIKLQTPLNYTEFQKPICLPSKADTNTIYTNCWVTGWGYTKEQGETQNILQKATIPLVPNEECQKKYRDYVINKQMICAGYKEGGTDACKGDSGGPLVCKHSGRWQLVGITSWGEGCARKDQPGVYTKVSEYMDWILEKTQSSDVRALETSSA
T4 sequence (P26262 20-390 partner limits assumed): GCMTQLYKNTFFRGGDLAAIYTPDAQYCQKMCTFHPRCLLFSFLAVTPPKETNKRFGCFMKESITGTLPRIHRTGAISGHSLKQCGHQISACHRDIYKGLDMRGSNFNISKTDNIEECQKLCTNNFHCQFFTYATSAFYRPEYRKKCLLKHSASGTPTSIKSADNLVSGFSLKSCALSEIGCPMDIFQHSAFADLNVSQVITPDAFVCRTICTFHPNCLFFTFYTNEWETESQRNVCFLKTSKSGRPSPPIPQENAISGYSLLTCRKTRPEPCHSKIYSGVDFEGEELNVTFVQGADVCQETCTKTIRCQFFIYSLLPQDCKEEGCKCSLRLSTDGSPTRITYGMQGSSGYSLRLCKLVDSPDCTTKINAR

| Molecule | Human pKal ELISA (T/B) [1] | Ki [2, 3] [nM] | % inhibition at 10 nM (pKal; [4]) [%] | Ki [2, 5] [nM] | other results |
| --- | --- | --- | --- | --- | --- |
| M137-E12: antibody inhibitor of pKal; HV-CDR3 … (antibody, V domains shown) VL: QSVLIQPPSVSGIPGQRVTISCSGNNSNFGSNTVTWYQQLPGTAPKLLIYSDSRRPSGVPDRFSGSRSDTSASLAISGLQSEDEAEYHCAAWDDSLNGVFGGGTKLTVL VH: EVQLLESGGGLVQPGGSLRLSCAASGFTFSDYRMQWVRQAPGKGLEWVSVIVPSGGNTMYADSVKGRFTISRDNSKNTLYLQMNSLRAEDTAVYYCARGGPGSSIAARRAPTGYYGMDVWGQGTTVTVSSASTKGPSVFPLAPSSKS | 4.5 | 79 | – | – | – |
| M202-A12 (antibody, V domains shown) VL: QDIQMTQSPSTLSASVGDRVTITCRASQSISSWLAWYQQKPGKAPNLLIYKASTLESGVPSRFSGSGSGTEFTLTISSLQPDDFATYYCQQYNTYWTFGQGTKVEIK VH: EVQLLESGGGLVQPGGSLRLSCAASGFTFSHYIMMWVRQAPGKGLEWVSGIYSSGGITVYADSVKGRFTISRDNSKNTLYLQMNSLRAEDTAVYYCAYQRTGVPRRDSFNIWGQGTMVTVSSASTKGPSVFPLAPSSKS | – | – | – | – | % inhibition at 10 nM (pKal; Table 12, antibodies based on M162-A04): 97.5%; Ki ([2]; human pKal, Table 12, antibodies based on M162-A04, read-out: human pKal Ki, app): 0.2 nM |
| M12-D05: antibody inhibitor of pKal; HV-CDR3 EGLLWFGENAFDI (antibody, V domains shown) VL: QSVLTQPPSVSVSPGQTATITCSGDQLGDKYVGWYQQKPGQSPILVIYQDTKRPSGIPERFSGSNSGNTATLTISGTHTVDEAHYYCQAWDTSTAGFGGGTKLTVL VH: EVQLLESGGGLVQPGGSLRLSCAASGFTFSWYTMVWVRQAPGKGLEWVSRIYPSGGWTKYADSVKGRFTISRDNSKNTLYLQMNSLRAEDTATYYCAREGLLWFGENAFDIWGQGTMVTVSSASTKGPSVFPLAPSSKS | 48.5 | 5.2 | – | – | – |
| M28-B11: antibody inhibitor of pKal; HV-CDR3 EGLLWFGENAFDI (antibody, V domains shown) VL: QSVLTQPPSVSVSPGQTATITCSGDQLGDKYVGWYQQKPGQSPILVIYQDTKRPSGIPERFSGSNSGNTATLTISGTHTVDEAHYYCQAWDTSTAGFGGGTKLTVL VH: EVQLLESGGGLVQPGGSLRLSCAASGFTFSWYTMVWVRQAPGKGLEWVSRIYPSGGWTKYADSVKGRFTISRDNSKNTLYLQMNSLRAEDTATYYCAREGLLWFGENAFDIWGQGTMVTVSSASTKGPSVFPLAPSSKS | 33.3 | 5.5 | – | – | – |
| M29-D09: antibody inhibitor of pKal; HV-CDR3 GSYDYIWGFYSDH (antibody, V domains shown) VL: QSALTQPPTVSVSPGQTARITCSGNKLGDKYVAWYQQKPGQSPMLVIYQDTKRPSAIPERFSGSNSANTATLSISGTQALDEADYYCQAWDSSIVIFGGGTRLTVL VH: EVQLLESGGGLVQPGGSLRLSCAASGFTFSWYTMVWVRQAPGKGLEWVSYIYPSGGATFYADSVKGRFTISRDNSKNTLYLQMNSLRAEDTAVYYCAMGSYDYIWGFYSDHWGQGTLVTVSSASTKGPSVFPLAPSSKS | – | – | – | – | mouse Ki, app (nM) (mouse pKal): no |

Now from value to molecule, other results behind:

| Human pKal ELISA (T/B) [1] | Ki [2, 3] [nM] | % inhibition at 10 nM (pKal; [4]) [%] | Ki [2, 5] [nM] | Molecule | other results |
| --- | --- | --- | --- | --- | --- |
| – | – | 95.6 | 0.16 | M210-C12 (antibody, V domains shown) VL: QDIQMTQSPGTLSLSPGERATLSCRTSQFVNSNYLAWYQQTPGQAPRLLIYGASSRATGIPDRFSGTGYGTDFTLTISRLEPEDYGTYYCQQSSRTPWTFGQGTRVEIK VH: EVQLLESGGGLVQPGGSLRLSCAASGFTFSHYLMTWVRQAPGKGLEWVSYISPSGGHTIYADSVKGRFTISRDNSKNTLYLQMNSLRAEDTAVYYCARVAQGIAARSRTSSVDQWGQGTLVTVSSASTKGPSVFPLAPSSKS | – |
| – | – | 92.6 | 0.2 | M206-F01 (antibody, V domains shown) VL: QDIQMTQSPGTLSLSPGERATLSCRTSQFVNSNYLAWYQQTPGQAPRLLIYGASSRATGIPDRFSGTGYGTDFTLTISRLEPEDYGTYYCQQSSRTPWTFGQGTRVEIK VH: EVQLLESGGGLVQPGGSLRLSCAASGFTFSGYMMVWVRQAPGKGLEWVSRISPSGGPTIYADSVKGRFTISRDNSKNTLYLQMNSLRAEDTAVYYCARVARGIAARSRTSYFDYWGQGTLVTVSSASTKGPSVFPLAPSSKS | – |
| – | – | 97.6 | 0.09 | M209-F04 (antibody, V domains shown) VL: QDIQMTQSPGTLSLSPGERATLSCRTSQFVNSNYLAWYQQTPGQAPRLLIYGASSRATGIPDRFSGTGYGTDFTLTISRLEPEDYGTYYCQQSSRTPWTFGQGTRVEIK VH: EVQLLESGGGLVQPGGSLRLSCAASGFTFSHYLMTWVRQAPGKGLEWVSYISPSGGHTIYADSVKGRFTISRDNSKNTLYLQMNSLRAEDTAVYYCARVARGIAARSRTSYLDQWGQGTLVTVSSASTKGPSVFPLAPSSKS | – |
